Test results taken from patent publication US20070238862A1 (published 2007).
No end group written: not given here.

T1: human ChemerinR (human, UniProt Q99788 3-373)
T1 sequence: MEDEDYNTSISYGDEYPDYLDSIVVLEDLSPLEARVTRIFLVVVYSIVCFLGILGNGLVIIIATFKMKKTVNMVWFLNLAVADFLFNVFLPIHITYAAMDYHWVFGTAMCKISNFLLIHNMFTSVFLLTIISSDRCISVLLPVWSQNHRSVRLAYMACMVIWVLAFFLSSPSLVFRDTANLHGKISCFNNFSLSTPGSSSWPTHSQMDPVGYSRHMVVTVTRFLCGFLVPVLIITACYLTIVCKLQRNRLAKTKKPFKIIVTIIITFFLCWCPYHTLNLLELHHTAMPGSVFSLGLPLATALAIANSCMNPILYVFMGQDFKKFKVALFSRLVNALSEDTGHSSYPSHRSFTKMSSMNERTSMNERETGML


Target: T1, human ChemerinR
Assay: cell-based or functional assay

EC50 (nM), Calcium flux-Aequoscreen assay on ChemerinR expressing cells [nM] | Binder
25.8 | IFPGQFAFS
43.8 | YVPGQFAFS
4.3 | YFPGQFAFD-NH2 [YFPGQFAFD-CONH2]
29.1 | FLPGQFAFS
66.3 | LFPGQFAFS
